PMC3005839
Several values for one entry are separate records, joined by “and”; a condition that tells them apart may be missing. Equal values may be shown once.

How the values were obtained:
[1] = molecular target: Nucleosome core particle NCP-601 (Xenopus laevis); assay: native gel or EMSA; near physiological ionic strength: 1X TBE (89 mM Tris-HCl, 89 mM boric acid, 1.0 mM EDTA, pH 8.3); preassembled NCP or array incubated with HMGN about 30 min at room temperature, electrophoresis at 4°C; 0.5 μM nucleosome core sites
[2] = molecular target: Nucleosome core particle NCP147 (Xenopus laevis); assay: as above
[3] = molecular target: Centered nucleosome core particle NCP146b (Xenopus laevis); assay: native gel or EMSA; low ionic strength: 0.25X TBE (0.25X TAE for 12-array); preassembled NCP or array incubated with HMGN or NBD peptide about 30 min at room temperature, electrophoresis at 4°C; 0.5 μM nucleosome core sites; NCP on 6% polyacrylamide, array on 1% agarose/1.3% polyacrylamide
[4] = molecular target: Nucleosome core particle NCP-601 (Xenopus laevis); assay: as above
[5] = molecular target: Nucleosome core particle NCP147 (Xenopus laevis); assay: as above

| Substance | stoichiometry N (HMGN : nucleosome core particle) [1] | stoichiometry N (HMGN : nucleosome core particle) [2] | stoichiometry N (HMGN : nucleosome) [3] | stoichiometry N (HMGN : nucleosome) [4] | stoichiometry N (HMGN : nucleosome) [5] |
| --- | --- | --- | --- | --- | --- |
| Xenopus laevis HMGN1 (natural protein) | 2 | 2 | 1 and 2 | 1 and 2 | 1 and 2 |
| Xenopus laevis HMGN2 (natural protein) | 2 | 2 | 1 and 2 | 2 and 1 | 1 and 2 |
